Results on 19 sequences are retold here after the supplement of paper PMC9170038.

Data set [1] relates to MS2 coat protein. In words: apparent KD of MS2 coat protein, switch ON state; designed switch direction (-1 OFF switch, 1 ON switch): -1; higher = weaker reporter binding. Particulars: FMN input: 0 or 200 uM; Eterna round: R93 (includes R88 designs). The essentials: (§1)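 Apparent KD per design is the median of normalised cluster binding-curve fits. Designed RNA switches transcribed on-chip from Illumina sequencing clusters were titrated with SNAP-549-labelled MS2 coat protein in twofold steps from 0.7 or 1.5 nM to 3 µM, with 0.8–1.5 h down to 10–20 min per step. Buffer: 100 mM Tris-HCl pH 7.5, 80 mM KCl, 4 mM MgCl2, without or with constant ligand.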

Data set [2] has as its system MS2 coat protein. In words: apparent KD of MS2 coat protein, switch OFF state (with FMN for OFF switches, without FMN for ON switches); designed switch direction (-1 OFF switch, 1 ON switch): -1; higher = weaker reporter binding. The following applies: FMN input: 0 or 200 uM; Eterna round: R93 (includes R88 designs). The essentials: as §1
The subject of data set [3] is MS2 coat protein. The data set can be described thus: apparent KD of MS2 coat protein; designed switch direction (-1 OFF switch, 1 ON switch): 1; higher = weaker reporter binding. The essentials:
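Apparent KD, taken as the median over clusters for each design, was obtained by curve-fitting normalised cluster fluorescence. Designed RNA switches had been transcribed on Illumina chips by stalled E. coli RNA polymerase and titrated with SNAP-549-labelled MS2 coat protein, doubling from 0.7 or 1.5 nM to 3 µM.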

[4] abbreviates: input ligand: microRNA oligo, concentration not stated.
Where [5] appears, read: Eterna round: R95, input ligand: microRNA oligo, concentration not stated.

Regarding “AAAAAACAUGAGGAUCACCCAUGUGAGGAUAUACAGAAUGGAAUAAAAUAACAAGAAAGUAGAAGGCACAAAAA [Ex 1 May 38]”, the figures for the “apparent KD of MS2 coat protein” value in the data set on MS2 coat protein [1] and in the data set on MS2 coat protein [2] were 36.2 nM and 41.6 nM, respectively.

Turning to “AAAAAACAUGAGGAUCACCCAUGUGAGGAUAUCCUGAAUGAAAUAAAAUAUCUCGAAAGGAGAAGGCGCAAAAA [Ex 1 May 33]”, the “apparent KD of MS2 coat protein” value came out at 67.7 nM in the data set on MS2 coat protein [1] and 49.9 nM in the data set on MS2 coat protein [2].

As for “AAAAAACAUGAGGAUCACCCAUGUGAGGAUAUCGCUAGUGAGACCCUAGUGUCAGUGAUGAGAAGGCACAUAAA [Brourd 613 Mod 8 - Jieux - Exclusion 1]”, the “apparent KD of MS2 coat protein” value with MS2 coat protein [1] was 32.8 nM; in the data set on MS2 coat protein [2] it was 32.5 nM.

On to “AAAAAACAUGAGGAUCACCCAUGUGAGGAUAUGAAAAAACAAAAAAAAAAGUAAACAAUCAGAAGGCACAACAA [JR_Exc--1_Sub1211]”, for which the “apparent KD of MS2 coat protein” value in the data set with MS2 coat protein [1] was found to be 27.3 nM; in the data set with MS2 coat protein [2] it was 24.4 nM.

With “AAAAAACAUGAGGAUCACCCAUGUGAGGAUAUGAAAAUACUAAGACAACAGUAAUCAAUCAGAAGGCACAACAA [JR_Exc--1_Sub1209]”, the “apparent KD of MS2 coat protein” value with MS2 coat protein [1] came out at 20.1 nM; in the data set with MS2 coat protein [2], 25.8 nM.

With “AAAAAACAUGAGGAUCACCCAUGUGAGGAUAUGACGUAAAUAAAGAAAGAAUAAAUCGUCAGAAGGCACACCAA [Mat - Exclusion 1 - Eli mod - D71]”, the “apparent KD of MS2 coat protein” value with MS2 coat protein [1] came out at 31.4 nM; in the data set with MS2 coat protein [2], 49.2 nM.

Turning to “AAAAAACAUGAGGAUCACCCAUGUGAGGAUAUGACGUAAAUAAAGAAAUAAGAAAUCGUCAGAAGGCACAAAAA [Mat - Exclusion 1 - Eli mod - D73]”, the “apparent KD of MS2 coat protein” value in the data set on MS2 coat protein [1] is 28.6 nM; with MS2 coat protein [2], 41.7 nM.

In the case of “AAAAAACAUGAGGAUCACCCAUGUGAGGAUAUGCUAAAAAAAAUAAAAAUAAAACAUAGCAGAAGGCACACCAA [Amethyst 57]”, the “apparent KD of MS2 coat protein” value in the data set with MS2 coat protein [1] amounted to 28.2 nM; in the data set with MS2 coat protein [2], 38.4 nM.

For “AAAAAACAUGAGGAUCACCCAUGUGAGGAUAUUAAAAAUAAGAAGGCAUAAAAAAAAAUAAGAAGGCACAUGAA [Meechl MS2 Ex1]”, the “apparent KD of MS2 coat protein” value amounted to 27.9 nM in the data set with MS2 coat protein [1] and 33.2 nM in the data set on MS2 coat protein [2].

As to “AAAAAACAUGAGGAUCACCCAUGUGAGGAUAUUGGUAUUAAAGACACCCACUUAAUGGCGAGAAGGCGCAAAAA [Brourd 613 Mod 19 - Jieux - Exclusion 1]”, the “apparent KD of MS2 coat protein” value turned out to be 25.5 nM in the data set on MS2 coat protein [1] and 27.5 nM with MS2 coat protein [2].

Consider “AAAAAACAUGAGGAUCACCCAUGUUAGGAUAUGCAGAGGGAAAAAAAAAAAAAAAAAAGCAGAAGGAACAUAAA [Design1]”, for which the “apparent KD of MS2 coat protein” value with MS2 coat protein [1] was 31.5 nM; in the data set with MS2 coat protein [2], 26.5 nM.

“AAAAAAGGAGGAUAUACGAACAUGUCAAAAGACGUGAAGGGACAUGAGGAUCACCCAUGUAGAAGGCCUAAAAA [JL Part Open 34]”: the “apparent KD of MS2 coat protein” value with MS2 coat protein [1] was 35.4 nM; in the data set on MS2 coat protein [2] it was 60.8 nM.

Take “AAAAAAGGAGGAUAUACGAACAUGUCGAAAGACGUGAAGGGACAUGAGGAUCACCCAUGUAGAAGGCUUAAAAA [Mat - Exclusion 2 - JL mod - D69]”: the “apparent KD of MS2 coat protein” value in the data set on MS2 coat protein [1] was determined as 37 nM; in the data set with MS2 coat protein [2] it was 23.9 nM.

With “UUUAUAUUCAGAGGAUAUUGAUGUUGUAUUUUACAAGAAGGCUGAUUGUUUUGUAAUGUUAUUAAACAUGAGGAUCACCCAUGU [JR_SSNG1_Sub013] (Eterna round: R96, puzzle: Same State NG 1)”, the “apparent KD of MS2 coat protein” value in the data set with MS2 coat protein [3] (input ligand: FMN 200 uM) came out at 19.7 nM; in the data set with MS2 coat protein [3] (setting [4]) it was 22.5 nM; in the data set on MS2 coat protein [3] (input ligand: none), 27.3 nM.

For the sequence “UUUCUACAUGAGGAUCACCCAUGUCAACAAAGUCGAGGAUAUGGGCAUAUUAUCUUAUUUCCAGAAGGCGAUUUCU [salish99_ss1_r3_092] (puzzle: Same State 1)”, in the data set on MS2 coat protein [3] (setting [5]), the “apparent KD of MS2 coat protein” value came to 101 nM.

For the sequence “UUUGCAUGACGAGGAUAUCAUUUAUUUCUUGAUUGAGAAGGCGUUCUUUUUAAUACCUAACAUGAGGAUCACCCAUGUGACAGU [JR_SSNG1_Sub047] (Eterna round: R96, puzzle: Same State NG 1)”, the “apparent KD of MS2 coat protein” value in the data set on MS2 coat protein [3] (setting [4]) came out at 13.1 nM.

As for “UUUGCAUGACGAGGAUAUCAUUUAUUUCUUGAUUGAGAAGGCGUUCUUUUUACUACCUAACAUGAGGAUCACCCAUGUGACAGU [JR_SSNG1_Sub048] (Eterna round: R96, puzzle: Same State NG 1)”, in the data set with MS2 coat protein [3] (setting [4]), the “apparent KD of MS2 coat protein” value was found to be 11.3 nM.

With “UUUGGGUGGCUGGAGGAUAUUCUUGUGGUUACAUGAGGAUCACCCAUGUGUCGCGCGGUACGCGAGGAGAAGGCUGGCGGCCGUU (puzzle: Same State 2)”, the “apparent KD of MS2 coat protein” value in the data set on MS2 coat protein [3] (setting [5]) came to 223 nM.

“UUUUUGUUCCGAGGAUAUCCUUUUUUCUUACAUGAGGAUCACCCAUGUAAAGGGAUUGAGUUGUAGGAGAAGGCGGUUUUGUUU [JR_SSNG2_Sub061] (Eterna round: R96, puzzle: Same State NG 2)”: the figures for the “apparent KD of MS2 coat protein” value with MS2 coat protein [3] (input ligand: FMN 200 uM), with MS2 coat protein [3] (setting [4]) and in the data set with MS2 coat protein [3] (input ligand: none) were 16.4 nM, 26.1 nM and 26.2 nM, respectively.
